Assay: Isoelectric point of expressed clathrin heavy chain preparation
Type: physicochemical
Details: recombinant human clathrin isoform 2 heavy chain with 6His tag from E. coli
Source text: The preparation yielded a protein with the following characteristics: […]

Substance: PE1130119-1: Clathrin human isoform 2 heavy chain expressed in E. coli, soluble protein with 6His tag
- Isoelectric Point: 5.67

Reference: patent publication US11666664B2, “Self assembling molecules for targeted drug delivery” (The General Hospital Corporation, priority 2015, dated 2023)
